Experimental findings from patent publication US20040006018A1 (Genentech, published 2004) are described below.

Assay [1] has as its target T1, Human LIF receptor on human Hela cells (human, UniProt P42702 45-1097).
T1 construct: whole, on cells; Endogenous receptor on cells; other subunits (gp130) not examined on these cells
T1 sequence (looked up): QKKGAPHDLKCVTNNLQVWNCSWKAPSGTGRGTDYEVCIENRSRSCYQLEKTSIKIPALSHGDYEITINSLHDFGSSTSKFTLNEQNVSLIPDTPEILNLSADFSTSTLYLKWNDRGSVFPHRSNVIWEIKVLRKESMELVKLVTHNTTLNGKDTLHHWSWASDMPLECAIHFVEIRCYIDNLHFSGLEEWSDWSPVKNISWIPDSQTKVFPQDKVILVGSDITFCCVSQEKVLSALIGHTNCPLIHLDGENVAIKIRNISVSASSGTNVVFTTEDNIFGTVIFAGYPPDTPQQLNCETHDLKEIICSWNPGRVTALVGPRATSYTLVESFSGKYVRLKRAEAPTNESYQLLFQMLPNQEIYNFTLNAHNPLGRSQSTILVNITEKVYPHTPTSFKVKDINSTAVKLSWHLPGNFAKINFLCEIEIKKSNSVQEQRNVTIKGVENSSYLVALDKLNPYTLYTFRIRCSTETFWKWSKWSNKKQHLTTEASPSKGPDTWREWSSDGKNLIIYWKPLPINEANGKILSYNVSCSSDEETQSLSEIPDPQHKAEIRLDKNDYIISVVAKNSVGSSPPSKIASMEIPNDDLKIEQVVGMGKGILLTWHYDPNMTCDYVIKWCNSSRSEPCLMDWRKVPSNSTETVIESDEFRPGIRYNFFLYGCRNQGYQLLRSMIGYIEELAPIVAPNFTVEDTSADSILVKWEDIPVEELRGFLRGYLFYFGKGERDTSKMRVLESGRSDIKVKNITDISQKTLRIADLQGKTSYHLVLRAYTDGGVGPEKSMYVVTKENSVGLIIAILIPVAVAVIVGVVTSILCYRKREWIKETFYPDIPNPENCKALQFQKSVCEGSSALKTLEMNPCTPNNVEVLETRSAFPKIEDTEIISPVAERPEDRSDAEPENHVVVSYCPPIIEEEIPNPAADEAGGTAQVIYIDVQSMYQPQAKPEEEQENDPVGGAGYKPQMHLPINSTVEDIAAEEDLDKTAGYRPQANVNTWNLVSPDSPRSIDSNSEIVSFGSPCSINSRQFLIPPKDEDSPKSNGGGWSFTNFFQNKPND
The assay is described as follows: conditioned medium competing for 125I-human LIF binding to Hela cells.

In assay [2] the target is T2, Mouse LIF receptor on mouse M1 cells (LIF receptor complex with gp130) (mouse, UniProt P42703 44-1092; Q00560 23-917).
T2 construct: whole, on cells; Endogenous receptor on M1 cells; also called LIFRβ
T2 sequence (Q00560 23-917, one chain of several): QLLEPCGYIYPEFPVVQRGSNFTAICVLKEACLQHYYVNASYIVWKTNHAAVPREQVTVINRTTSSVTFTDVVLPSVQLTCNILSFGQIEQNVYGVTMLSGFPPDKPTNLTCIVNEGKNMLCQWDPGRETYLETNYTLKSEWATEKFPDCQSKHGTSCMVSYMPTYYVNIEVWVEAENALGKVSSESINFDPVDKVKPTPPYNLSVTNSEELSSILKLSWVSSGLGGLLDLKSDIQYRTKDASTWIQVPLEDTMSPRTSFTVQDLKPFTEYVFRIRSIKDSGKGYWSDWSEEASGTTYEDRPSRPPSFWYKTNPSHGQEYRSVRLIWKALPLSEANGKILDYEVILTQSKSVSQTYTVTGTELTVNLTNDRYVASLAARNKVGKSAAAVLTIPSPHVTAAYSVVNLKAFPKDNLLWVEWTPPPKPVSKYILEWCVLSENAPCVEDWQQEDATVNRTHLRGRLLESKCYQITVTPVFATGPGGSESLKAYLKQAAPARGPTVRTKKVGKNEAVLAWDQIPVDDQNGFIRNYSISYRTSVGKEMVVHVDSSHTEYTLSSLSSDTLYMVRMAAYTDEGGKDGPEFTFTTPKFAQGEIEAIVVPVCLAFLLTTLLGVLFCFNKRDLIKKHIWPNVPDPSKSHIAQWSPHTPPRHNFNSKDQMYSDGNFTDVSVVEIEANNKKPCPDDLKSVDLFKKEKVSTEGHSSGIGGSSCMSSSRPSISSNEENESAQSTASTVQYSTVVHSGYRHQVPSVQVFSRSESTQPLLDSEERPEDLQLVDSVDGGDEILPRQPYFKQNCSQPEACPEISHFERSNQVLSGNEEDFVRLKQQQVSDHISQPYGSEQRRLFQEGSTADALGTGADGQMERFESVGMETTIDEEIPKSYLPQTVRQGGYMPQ
The assay is described as follows: conditioned medium competing for 125I-human LIF binding to M1 cells.

Assay [3] deals with T3, OSM specific receptor (oncostatin M receptor) on human WI-26 VA4 cells (human, UniProt Q99650 28-979).
T3 construct: whole, on cells; Endogenous receptor on cells; further subunits not described for this assay; also called specific OSM Receptor; WI-26 cells
T3 sequence (looked up): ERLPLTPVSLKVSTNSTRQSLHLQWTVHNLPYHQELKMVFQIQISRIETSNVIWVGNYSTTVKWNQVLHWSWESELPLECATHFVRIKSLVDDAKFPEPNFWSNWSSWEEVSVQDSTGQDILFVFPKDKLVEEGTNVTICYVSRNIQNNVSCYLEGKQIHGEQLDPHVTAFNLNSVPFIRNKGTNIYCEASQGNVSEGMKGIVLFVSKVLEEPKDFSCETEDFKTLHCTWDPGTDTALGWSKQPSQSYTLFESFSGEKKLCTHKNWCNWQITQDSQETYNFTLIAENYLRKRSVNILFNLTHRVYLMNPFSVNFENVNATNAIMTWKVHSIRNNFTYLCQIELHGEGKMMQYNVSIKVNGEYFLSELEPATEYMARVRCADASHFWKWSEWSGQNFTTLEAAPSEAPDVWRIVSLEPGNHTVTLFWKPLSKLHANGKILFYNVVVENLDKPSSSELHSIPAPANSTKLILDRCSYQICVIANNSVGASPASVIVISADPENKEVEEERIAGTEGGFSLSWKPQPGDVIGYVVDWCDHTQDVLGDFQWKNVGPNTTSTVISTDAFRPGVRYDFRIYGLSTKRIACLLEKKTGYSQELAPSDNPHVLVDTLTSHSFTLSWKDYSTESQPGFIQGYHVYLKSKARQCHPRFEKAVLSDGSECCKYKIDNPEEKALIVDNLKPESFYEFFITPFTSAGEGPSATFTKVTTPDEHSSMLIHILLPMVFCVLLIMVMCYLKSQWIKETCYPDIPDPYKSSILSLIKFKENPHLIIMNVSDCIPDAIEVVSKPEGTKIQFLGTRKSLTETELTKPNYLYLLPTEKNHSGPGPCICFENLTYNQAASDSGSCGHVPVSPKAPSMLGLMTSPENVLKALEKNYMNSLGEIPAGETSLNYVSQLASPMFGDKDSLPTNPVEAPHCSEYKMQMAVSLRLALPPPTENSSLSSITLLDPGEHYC
The assay is described as follows: competition for 125I-human OSM binding to WI-26 VA4 cells.

B1: Human CT-1 (conditioned medium from human 293 cells transfected with pRK5.hu.CT1) (ligand)
chain: MSRREGSLEDPQTDSSVSLLPHLEAKIRQTHSLAHLLTKYAEQLLQEYVQLQGDPFGLPSFSPPRLPVAGLSAPAPSHAGLPVHERLRLDAAALAALPPLLDAVCRRQAELNPRAPRLLRRLEDAARQARALGAAVEALLAALGAANRGPRAEPPAATASAASATGVFPAKVLGLRVCGLYREWLSRTEGDLGQLLPGGSA
notes: Not purified: tested as clarified conditioned medium (concentrated 10 fold and added at a 3-fold dilution for Hela cells; unconcentrated for WI-26 cells); also called human cardiotrophin-1; hCT-1
Regarding B1, the figures for the binding result in assay [1], in assay [2] and in assay [3] were “binds”, “binds” and “no binding”, respectively.
